B1: TCPB_HUMAN (protein, UniProt P78371 2-535, looked up)
T-complex protein 1 subunit …: ASLSLAPVNIFKAGADEERAETARLTSFIGAIAIGDLVKSTLGPKGMDKILLSSGRDASLMVTNDGATILKNIGVDNPAAKVLVDMSRVQDDEVGDGTTSVTVLAAELLREAESLIAKKIHPQTIIAGWREATKAAREALLSSAVDHGSDEVKFRQDLMNIAGTTLSSKLLTHHKDHFTKLAVEAVLRLKGSGNLEAIHIIKKLGGSLADSYLDEGFLLDKKIGVNQPKRIENAKILIANTGMDTDKIKIFGSRVRVDSTAKVAEIEHAEKEKMKEKVERILKHGINCFINRQLIYNYPEQLFGAAGVMAIEHADFAGVERLALVTGGEIASTFDHPELVKLGSCKLIEEVMIGEDKLIHFSGVALGEACTIVLRGATQQILDEAERSLHDALCVLAQTVKDSRTVYGGGCSEMLMAHAVTQLANRTPGKEAVAMESYAKALRMLPTIIADNAGYDSADLVAQLRAAHSEGNTTAGLDMREGTIGDMAILGITESFQVKRQVLLSAAEAAEVILRVDNIIKAAPRKRVPDHHPC
B2: SNW1_HUMAN (protein, UniProt Q13573 2-536, looked up)
SNW domain-containing protein …: ALTSFLPAPTQLSQDQLEAEEKARSQRSRQTSLVSSRREPPPYGYRKGWIPRLLEDFGDGGAFPEIHVAQYPLDMGRKKKMSNALAIQVDSEGKIKYDAIARQGQSKDKVIYSKYTDLVPKEVMNADDPDLQRPDEEAIKEITEKTRVALEKSVSQKVAAAMPVRAADKLAPAQYIRYTPSQQGVAFNSGAKQRVIRMVEMQKDPMEPPRFKINKKIPRGPPSPPAPVMHSPSRKMTVKEQQEWKIPPCISNWKNAKGYTIPLDKRLAADGRGLQTVHINENFAKLAEALYIADRKAREAVEMRAQVERKMAQKEKEKHEEKLREMAQKARERRAGIKTHVEKEDGEARERDEIRHDRRKERQHDRNLSRAAPDKRSKLQRNENRDISEVIALGVPNPRTSNEVQYDQRLFNQSKGMDSGFAGGEDEIYNVYDQAWRGGKDMAQSIYRPSKNLDKDMYGDDLEARIKTNRFVPDKEFSGSDRRQRGREGPVQFEEDPFGLDKFLEEAKQHGGSKRPSDSSRPKEHEHEGKKRRKE
B3: TCPD_HUMAN (protein, UniProt P50991 2-539, looked up)
T-complex protein 1 subunit …: PENVAPRSGATAGAAGGRGKGAYQDRDKPAQIRFSNISAAKAVADAIRTSLGPKGMDKMIQDGKGDVTITNDGATILKQMQVLHPAARMLVELSKAQDIEAGDGTTSVVIIAGSLLDSCTKLLQKGIHPTIISESFQKALEKGIEILTDMSRPVELSDRETLLNSATTSLNSKVVSQYSSLLSPMSVNAVMKVIDPATATSVDLRDIKIVKKLGGTIDDCELVEGLVLTQKVSNSGITRVEKAKIGLIQFCLSAPKTDMDNQIVVSDYAQMDRVLREERAYILNLVKQIKKTGCNVLLIQKSILRDALSDLALHFLNKMKIMVIKDIEREDIEFICKTIGTKPVAHIDQFTADMLGSAELAEEVNLNGSGKLLKITGCASPGKTVTIVVRGSNKLVIEEAERSIHDALCVIRCLVKKRALIAGGGAPEIELALRLTEYSRTLSGMESYCVRAFADAMEVIPSTLAENAGLNPISTVTELRNRHAQGEKTAGINVRKGGISNILEELVVQPLLVSVSALTLATETVRSILKIDDVVNTR
B4: K2C1B_HUMAN (protein, UniProt Q7Z794 1-578, looked up)
Keratin, type II cytoskeletal …: MSHQFSSQSAFSSMSRRVYSTSSSAGSGGGSPAVGSVCYARGRCGGGGYGIHGRGFGSRSLYNLGGSRSISINLMGRSTSGFCQGGGVGGFGGGRGFGVGSTGAGGFGGGGFGGAGFGTSNFGLGGFGPYCPPGGIQEVTINQSLLEPLHLEVDPEIQRIKTQEREQIMVLNNKFASFIDKVRFLEQQNQVLQTKWELLQQVNTSTGTNNLEPLLENYIGDLRRQVDLLSAEQMRQNAEVRSMQDVVEDYKSKYEDEINKRTGSENDFVVLKKDVDAAYVSKVDLESRVDTLTGEVNFLKYLFLTELSQVQTHISDTNVILSMDNNRSLDLDSIIDAVRTQYELIAQRSKDEAEALYQTKYQELQITAGRHGDDLKNSKMEIAELNRTVQRLQAEISNVKKQIEQMQSLISDAEERGEQALQDAWQKLQDLEEALQQSKEELARLLRDYQAMLGVKLSLDVEIATYRQLLEGEESRMSGELQSHVSISVQNSQVSVNGGAGGGGSYGSGGYGGGSGGGYGGGRSYRGGGARGRSGGGYGSGCGGGGGSYGGSGRSGRGSSRVQIIQTSTNTSHRRILE
B5: PSPC1_HUMAN (protein, UniProt Q8WXF1 1-523, looked up)
Paraspeckle component 1: MMLRGNLKQVRIEKNPARLRALESAVGESEPAAAAAMALALAGEPAPPAPAPPEDHPDEEMGFTIDIKSFLKPGEKTYTQRCRLFVGNLPTDITEEDFKRLFERYGEPSEVFINRDRGFGFIRLESRTLAEIAKAELDGTILKSRPLRIRFATHGAALTVKNLSPVVSNELLEQAFSQFGPVEKAVVVVDDRGRATGKGFVEFAAKPPARKALERCGDGAFLLTTTPRPVIVEPMEQFDDEDGLPEKLMQKTQQYHKEREQPPRFAQPGTFEFEYASRWKALDEMEKQQREQVDRNIREAKEKLEAEMEAARHEHQLMLMRQDLMRRQEELRRLEELRNQELQKRKQIQLRHEEEHRRREEEMIRHREQEELRRQQEGFKPNYMENREQEMRMGDMGPRGAINMGDAFSPAPAGNQGPPPMMGMNMNNRATIPGPPMGPGPAMGPEGAANMGTPMMPDNGAVHNDRFPQGPPSQMGSPMGSRTGSETPQAPMSGVGPVSGGPGGFGRGSQGGNFEGPNKRRRY
B6: CLPB_HUMAN (protein, UniProt Q9H078 37-707, looked up)
Mitochondrial disaggregase: VTTGSLGEPQWLRVATGGRPGTSPALFSGRGAATGGRQGGRFDTKCLAAATWGRLPGPEETLPGQDSWNGVPSRAGLGMCALAAALVVHCYSKSPSNKDAALLEAARANNMQEVSRLLSEGADVNAKHRLGWTALMVAAINRNNSVVQVLLAAGADPNLGDDFSSVYKTAKEQGIHSLEDGGQDGASRHITNQWTSALEFRRWLGLPAGVLITREDDFNNRLNNRASFKGCTALHYAVLADDYRTVKELLDGGANPLQRNEMGHTPLDYAREGEVMKLLRTSEAKYQEKQRKREAEERRRFPLEQRLKEHIIGQESAIATVGAAIRRKENGWYDEEHPLVFLFLGSSGIGKTELAKQTAKYMHKDAKKGFIRLDMSEFQERHEVAKFIGSPPGYVGHEEGGQLTKKLKQCPNAVVLFDEVDKAHPDVLTIMLQLFDEGRLTDGKGKTIDCKDAIFIMTSNVASDEIAQHALQLRQEALEMSRNRIAENLGDVQISDKITISKNFKENVIRPILKAHFRRDEFLGRINEIVYFLPFCHSELIQLVNKELNFWAKRAKQRHNITLLWDREVADVLVDGYNVHYGARSIKHEVERRVVNQLAAAYEQDLLPGGCTLRITVEDSDKQLLKSPELPSPQAEKRLPKLRLEIIDKDSKTRRLDIRAPLHPEKVCNTI
B7: ASNS_HUMAN (protein, UniProt P08243 2-561, looked up)
Asparagine synthetase …: CGIWALFGSDDCLSVQCLSAMKIAHRGPDAFRFENVNGYTNCCFGFHRLAVVDPLFGMQPIRVKKYPYLWLCYNGEIYNHKKMQQHFEFEYQTKVDGEIILHLYDKGGIEQTICMLDGVFAFVLLDTANKKVFLGRDTYGVRPLFKAMTEDGFLAVCSEAKGLVTLKHSATPFLKVEPFLPGHYEVLDLKPNGKVASVEMVKYHHCRDVPLHALYDNVEKLFPGFEIETVKNNLRILFNNAVKKRLMTDRRIGCLLSGGLDSSLVAATLLKQLKEAQVQYPLQTFAIGMEDSPDLLAARKVADHIGSEHYEVLFNSEEGIQALDEVIFSLETYDITTVRASVGMYLISKYIRKNTDSVVIFSGEGSDELTQGYIYFHKAPSPEKAEEESERLLRELYLFDVLRADRTTAAHGLELRVPFLDHRFSSYYLSLPPEMRIPKNGIEKHLLRETFEDSNLIPKEILWRPKEAFSDGITSVKNSWFKILQEYVEHQVDDAMMANAAQKFPFNTPKTKEGYYYRQVFERHYPGRADWLSHYWMPKWINATDPSARTLTHYKSAVKA
B8: LAP2A_HUMAN (protein, UniProt P42166 2-694, looked up)
Lamina-associated polypeptide …: PEFLEDPSVLTKDKLKSELVANNVTLPAGEQRKDVYVQLYLQHLTARNRPPLPAGTNSKGPPDFSSDEEREPTPVLGSGAAAAGRSRAAVGRKATKKTDKPRQEDKDDLDVTELTNEDLLDQLVKYGVNPGPIVGTTRKLYEKKLLKLREQGTESRSSTPLPTISSSAENTRQNGSNDSDRYSDNEEGKKKEHKKVKSTRDIVPFSELGTTPSGGGFFQGISFPEISTRPPLGSTELQAAKKVHTSKGDLPREPLVATNLPGRGQLQKLASERNLFISCKSSHDRCLEKSSSSSSQPEHSAMLVSTAASPSLIKETTTGYYKDIVENICGREKSGIQPLCPERSHISDQSPLSSKRKALEESESSQLISPPLAQAIRDYVNSLLVQGGVGSLPGTSNSMPPLDVENIQKRIDQSKFQETEFLSPPRKVPRLSEKSVEERDSGSFVAFQNIPGSELMSSFAKTVVSHSLTTLGLEVAKQSQHDKIDASELSFPFHESILKVIEEEWQQVDRQLPSLACKYPVSSREATQILSVPKVDDEILGFISEATPLGGIQAASTESCNQQLDLALCRAYEAAASALQIATHTAFVAKAMQADISQAAQILSSDPSRTHQALGILSKTYDAASYICEAAFDEVKMAAHTMGNATVGRRYLWLKDCKINLASKNKLASTPFKGGTLFGGEVCKVIKKRGNKH
B9: HNRPR_HUMAN (protein, UniProt O43390 2-633, looked up)
Heterogeneous nuclear …: ANQVNGNAVQLKEEEEPMDTSSVTHTEHYKTLIEAGLPQKVAERLDEIFQTGLVAYVDLDERAIDALREFNEEGALSVLQQFKESDLSHVQNKSAFLCGVMKTYRQREKQGSKVQESTKGPDEAKIKALLERTGYTLDVTTGQRKYGGPPPDSVYSGVQPGIGTEVFVGKIPRDLYEDELVPLFEKAGPIWDLRLMMDPLSGQNRGYAFITFCGKEAAQEAVKLCDSYEIRPGKHLGVCISVANNRLFVGSIPKNKTKENILEEFSKVTEGLVDVILYHQPDDKKKNRGFCFLEYEDHKSAAQARRRLMSGKVKVWGNVVTVEWADPVEEPDPEVMAKVKVLFVRNLATTVTEEILEKSFSEFGKLERVKKLKDYAFVHFEDRGAAVKAMDEMNGKEIEGEEIEIVLAKPPDKKRKERQAARQASRSTAYEDYYYHPPPRMPPPIRGRGRGGGRGGYGYPPDYYGYEDYYDDYYGYDYHDYRGGYEDPYYGYDDGYAVRGRGGGRGGRGAPPPPRGRGAPPPRGRAGYSQRGAPLGPPRGSRGGRGGPAQQQRGRGSRGSRGNRGGNVGGKRKADGYNQPDSKRRQTNNQQNWGSQPIAQQPLQQGGDYSGNYGYNNDNQEFYQDTYGQQWK
B10: ERP44_HUMAN (protein, UniProt Q9BS26 30-406, looked up)
Endoplasmic reticulum …: EITSLDTENIDEILNNADVALVNFYADWCRFSQMLHPIFEEASDVIKEEFPNENQVVFARVDCDQHSDIAQRYRISKYPTLKLFRNGMMMKREYRGQRSVKALADYIRQQKSDPIQEIRDLAEITTLDRSKRNIIGYFEQKDSDNYRVFERVANILHDDCAFLSAFGDVSKPERYSGDNIIYKPPGHSAPDMVYLGAMTNFDVTYNWIQDKCVPLVREITFENGEELTEEGLPFLILFHMKEDTESLEIFQNEVARQLISEKGTINFLHADCDKFRHPLLHIQKTPADCPVIAIDSFRHMYVFGDFKDVLIPGKLKQFVFDLHSGKLHREFHHGPDPTDTAPGEQAQDVASSPPESSFQKLAPSEYRYTLLRDRDEL

These molecules were tested on KDM4A-I71AzF (assay: CASI: photo-crosslinking with HEK293T cell extracts, StrepTactin enrichment and LC-MS/MS proteomics). Conditions: sheet "Final results but with 0.01".
Assay type: binding, human
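Note: lysates from HEK293T cells pretreated with a KDM4 inhibitor to raise proteome methylation, affinity-purified after ±UV, gel-resolved, trypsin-digested, with exclusive unique peptides per protein averaged per condition.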

| Molecule | Fold change (+UV/-UV) |
| --- | --- |
| B1 | 1 |
| B2 | 2 |
| B3 | 0 |
| B4 | 4 |
| B5 | 1.667 |
| B6 | 2 |
| B7 | 2 |
| B8 | 0 |
| B9 | 2 |
| B10 | 0.5 |
